Measured values published in PMC5792912.

Key:
Assay type in all cases: in vitro ADME
[1] = substrate: O=c1cc(-c2ccccc2)c2ccc(O)c(O)c2o1; assay: Methylation kinetics in pooled human liver cytosol (HLC); conditions: other: HLC 0.5 mg/ml, substrate 0.1–40 µM, 5 min; best-fit value ± s.e.; pH 7.4
Procedure: (§1) Reaction mixtures were pre-incubated at 37°C for 5 min and initiated by the addition of SAM to a final concentration of 0.4 mM. The samples were incubated for a certain period of time and the reaction was terminated by the addition of 200 µl ice-cold acetonitrile and then centrifuged at 20 000g, 4°C, for 20 min. Control incubations were performed either without human liver cytosol, or without SAM or without substrate. The supernatants were subjected to ultra-fast liquid chromatography (UFLC) coupled with a diode array detector (DAD) and an electrospray ionization (ESI) mass spectrometer (MS) analyzer.
(§2) 7,8-DHCs and their methylated conjugates were analysed by a UFLC spectrometry system (Shimadzu, Kyoto, Japan), equipped with two LC-20AD pumps, a DGU-20A3 vacuum degasser, a SIL-20ACHT auto-sampler, a CTO-20AC column oven, an SPD-M 20A DAD, a CBM-20A communications bus module, a mass detector (2010EV) with an ESI interface and a computer equipped with UFLC-MS SOLUTION v. 3.41 software. A Shimadzu ODS (75.0 × 2.0 mm, 3 µm) analytical column was used to separate 7,8-DHCs and their methylated conjugates. Column temperature was kept at 40°C. […] The methylation samples were stable over 72 h at 4°C. 7,8-DHC methylation was quantified by the standard curves of the methylated conjugates at the detector wavelength of 325 nm, which were linear from 0.01 to 10 µM (the correlation coefficient was 0.999).
(§3) For estimating kinetic parameters, 7,8-DHCs (0.1–40 µM) were incubated with pooled HLC and S-COMT. 7,8-DHCs (0.1–40 µM) were incubated with HLC or S-COMT for 5 min, using a microsomal protein concentration of 0.5 mg ml^−1 or 0.002 mg ml^−1 for HLC and S-COMT, respectively. Kinetic constants for 7,8-DHCs methylation by HLC and S-COMT were obtained by fitting the Michaelis–Menten kinetics equation (3.1) to experimental data.
(§4) For the Michaelis–Menten kinetic model, 3.1 v=Vmax×[S]/Km+[S], where v is the rate of reaction, [S] is the substrate concentration, Vmax is the maximum velocity estimate and Km is the apparent affinity constant.
(§5) All incubations were performed in duplicate. Kinetic constants were obtained using GraphPad PRISM 6 (GraphPad Software, Inc. La Jolla, CA) software.

[2] = substrate: O=c1ccc2ccc(O)c(O)c2o1; assay: as above; conditions: other: HLC 0.5 mg/ml, substrate 0.1–40 µM, 5 min; best-fit value ± s.e.; pH 7.4
Procedure: as §1, §2, §3, §4, §5

[3] = substrate: Cc1cc(=O)oc2c(O)c(O)ccc12; assay: as above; conditions: other: HLC 0.5 mg/ml, substrate 0.1–40 µM, 5 min; best-fit value ± s.e.; pH 7.4
Procedure: as §1, §2, §3, §4, §5

[4] = substrate: O=C(O)Cc1cc(=O)oc2c(O)c(O)ccc12; assay: as above; conditions: other: HLC 0.5 mg/ml, substrate 0.1–40 µM, 5 min; best-fit value ± s.e.; pH 7.4
Procedure: as §1, §2, §3, §4, §5

[5] = substrate: O=c1cc(-c2ccccc2)c2ccc(O)c(O)c2o1; assay: Methylation kinetics with recombinant human soluble COMT; conditions: other: S-COMT 0.002 mg/ml, substrate 0.1–40 µM, 5 min; best-fit value ± s.e.; pH 7.4
Procedure: as §1, §2, §3, §4, §5

[6] = substrate: O=c1ccc2ccc(O)c(O)c2o1; assay: as above; conditions: other: S-COMT 0.002 mg/ml, substrate 0.1–40 µM, 5 min; best-fit value ± s.e.; pH 7.4
Procedure: as §1, §2, §3, §4, §5

[7] = substrate: Cc1cc(=O)oc2c(O)c(O)ccc12; assay: as above; conditions: other: S-COMT 0.002 mg/ml, substrate 0.1–40 µM, 5 min; best-fit value ± s.e.; pH 7.4
Procedure: as §1, §2, §3, §4, §5

[8] = substrate: O=C(O)Cc1cc(=O)oc2c(O)c(O)ccc12; assay: as above; conditions: other: S-COMT 0.002 mg/ml, substrate 0.1–40 µM, 5 min; best-fit value ± s.e.; pH 7.4
Procedure: as §1, §2, §3, §4, §5

Protein	Km [1]	Km [2]	Km [3]	Km [4]	Km [5]	Km [6]	Km [7]	Km [8]
COMT in HLC (Homo sapiens) (protein, Pooled human liver cytosol (HLC) from seven male donors; tissue Research Institute for Liver Diseases (Shanghai, China) Lot; QROX; host or cells: pooled human liver cytosol, seven male donors) MGDTKEQRILNHVLQHAEPGNAQSVLEAIDTYCEQKEWAMNVGDKKGKIVDAVIQEHQPSVLLELGAYCGYSAVRMARLLSPGARLITIEINPDCAAITQRMVDFAGVKDKVTLVVGASQDIIPQLKKKYDVDTLDMVFLDHWKDRYLPDTLLLEECGLLRKGTVLLADNVICPGAPDFLAHVRGSSCFECTHYQSFLEYREVVDGLEKAIYKGPGSEAGP	0.089 ± 0.015 µM	0.21 ± 0.036 µM	0.20 ± 0.029 µM	7.52 ± 0.64 µM	–	–	–	–
recombinant human soluble COMT (S-COMT) (Homo sapiens) (protein, made in house) MGDTKEQRILNHVLQHAEPGNAQSVLEAIDTYCEQKEWAMNVGDKKGKIVDAVIQEHQPSVLLELGAYCGYSAVRMARLLSPGARLITIEINPDCAAITQRMVDFAGVKDKVTLVVGASQDIIPQLKKKYDVDTLDMVFLDHWKDRYLPDTLLLEECGLLRKGTVLLADNVICPGAPDFLAHVRGSSCFECTHYQSFLEYREVVDGLEKAIYKGPGSEAGP	–	–	–	–	0.22 ± 0.034 µM	0.48 ± 0.071 µM	1.07 ± 0.10 µM	7.93 ± 1.31 µM
